Laboratory results reported in US20190300618A1 (Merck Sharp & Dohme, published 2019).
Changes are numbered by the printed parent chain. Values belong to the molecule of their own block, whether it stands above or below them.

Assays:
Assay in all cases: flow cytometry, CHO-K1; sub-column 1 of 2
Q15A = target: T1, Q15A
T1 construct: also called hCD27 Q15A
T1 receptor: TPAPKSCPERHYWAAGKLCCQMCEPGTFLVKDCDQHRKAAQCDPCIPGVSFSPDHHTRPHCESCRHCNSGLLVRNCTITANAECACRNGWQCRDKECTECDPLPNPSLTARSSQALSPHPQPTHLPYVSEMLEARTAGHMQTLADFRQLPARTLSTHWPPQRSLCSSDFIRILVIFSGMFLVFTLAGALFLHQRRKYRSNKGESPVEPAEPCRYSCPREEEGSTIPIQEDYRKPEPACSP

R37A = target: T2, R37A
T2 construct: also called hCD27 R37A
T2 receptor: T1 receptor with A15Q, R37A

W13A = target: T3, W13A
T3 construct: also called hCD27 W13A
T3 receptor: T1 receptor with W13A, A15Q

R10A = target: T4, R10A
T4 construct: also called hCD27 R10A
T4 receptor: T1 receptor with R10A, A15Q

Q91A = target: T5, Q91A
T5 construct: also called hCD27 Q91A
T5 receptor: T1 receptor with A15Q, Q91A

Q41A = target: T6, Q41A
T6 construct: also called hCD27 Q41A
T6 receptor: T1 receptor with A15Q, Q41A

G89A = target: T7, G89A
T7 construct: also called hCD27 G89A
T7 receptor: T1 receptor with A15Q, G89A

P8A = target: T8, P8A
T8 construct: also called hCD27 P8A
T8 receptor: T1 receptor with P8A, A15Q

H60A = target: T9, H60A
T9 construct: also called hCD27 H60A
T9 receptor: T1 receptor with A15Q, H60A

V30A = target: T10, V30A
T10 construct: also called hCD27 V30A
T10 receptor: T1 receptor with A15Q, V30A

% of WT hCD27 binding (geo mean FITC) (Q15A): 32% | % of WT hCD27 binding (geo mean FITC) (R37A): 115% | % of WT hCD27 binding (geo mean FITC) (W13A): 89.1% | % of WT hCD27 binding (geo mean FITC) (R10A): 107% | % of WT hCD27 binding (geo mean FITC) (Q91A): 146% | % of WT hCD27 binding (geo mean FITC) (Q41A): 106% | % of WT hCD27 binding (geo mean FITC) (G89A): 100% | % of WT hCD27 binding (geo mean FITC) (P8A): 84.5% | % of WT hCD27 binding (geo mean FITC) (H60A): 167% | % of WT hCD27 binding (geo mean FITC) (V30A): 161%
Molecule: 1A4 (mouse IgG1) (antibody)

% of WT hCD27 binding (geo mean FITC) (Q15A): 107% | % of WT hCD27 binding (geo mean FITC) (R37A): 35% | % of WT hCD27 binding (geo mean FITC) (W13A): 90.7% | % of WT hCD27 binding (geo mean FITC) (R10A): 104% | % of WT hCD27 binding (geo mean FITC) (Q91A): 149% | % of WT hCD27 binding (geo mean FITC) (Q41A): 113% | % of WT hCD27 binding (geo mean FITC) (G89A): 116% | % of WT hCD27 binding (geo mean FITC) (P8A): 68.5% | % of WT hCD27 binding (geo mean FITC) (H60A): 185% | % of WT hCD27 binding (geo mean FITC) (V30A): 166%
Molecule: 9F4 (mouse IgG2a) (antibody)

% of WT hCD27 binding (geo mean FITC) (Q15A): 99.6% | % of WT hCD27 binding (geo mean FITC) (R37A): 50.3% | % of WT hCD27 binding (geo mean FITC) (W13A): 86% | % of WT hCD27 binding (geo mean FITC) (R10A): 103% | % of WT hCD27 binding (geo mean FITC) (Q91A): 148% | % of WT hCD27 binding (geo mean FITC) (Q41A): 108% | % of WT hCD27 binding (geo mean FITC) (G89A): 113% | % of WT hCD27 binding (geo mean FITC) (P8A): 44.9% | % of WT hCD27 binding (geo mean FITC) (H60A): 178% | % of WT hCD27 binding (geo mean FITC) (V30A): 170%
B1: Antibody hCD27.131A (mouse parental 131A) (antibody, V domains shown)
VH: QIQLVQSGPELKKPGETVKISCKASGYTFTNYGMNWVKQAPGKGLKWMGWINTNTGEPTYAEEFKGRFAFSLETSATTAYLQINNLKNEDTATYFCAREGDAMDYWGQGTSVTVSS
VL: QIVLTQSPAIMSASPGEKVTMTCSASSSVSYMHWYQQKSGTSPKRWIYDTSKLASGVPARFSGSGSGTSYSLTISSMEAEDAATYYCQQWNSYPFTFGSGTKLEIK
notes: mouse IgG1; also called mouse hCD27.131A
